Several values for one entry are separate records, joined by “and”; a condition that tells them apart may be missing. Identical values can stand only once.

The target in assay [1] is PTH receptor present on the SaOS-2 (human osteosarcoma cells) (human (SaOS-2 human osteosarcoma cells)) (UniProt Q03431). Description: displacement of mono-125I-[Nle8,18,Tyr34(3-125I)]bPTH(1-34)NH2 from SaOS-2 cells; Kd defined as half maximal inhibition.
Assay [2] shares this target.

Broadly, the Kd is the free concentration of one partner at which half of the binding sites on the other are occupied at equilibrium, for simple one-to-one binding. Higher therefore signals a looser complex. Substance “[Cha^31]hPTH(1-34)NH2 (from UniProt P01270) (peptide)” gave a Kd in assay [1] of 30 nM. The same substance yielded an EC50 (half maximal stimulation of adenylate cyclase, cAMP synthesis in SaOS-2 cells) in assay [2] of 4 nM.
The like results for “[Cha^7,11, Aib^19]hPTH(1-34)NH2 (from UniProt P01270) (peptide)” were, in that order, 7 nM and 0.5 nM.
Turning to “[Aib^3]hPTH(1-34)NH2 (from UniProt P01270) (peptide)”, the Kd in assay [1] stood at 4 nM. The substance further registered an EC50 (half maximal stimulation of adenylate cyclase, cAMP synthesis in SaOS-2 cells) in assay [2] of 1.1 nM.
On the same counts, the results for “[Cha^7,11, Aib^19, Lys^30]hPTH(1-34)NH2 (from UniProt P01270) (peptide)” are 4 nM and 2 nM.
In turn, “[Cha^7]hPTH(1-34)NH2 (from UniProt P01270) (peptide)” yielded a Kd in assay [1] of 20 nM. Further, the EC50 (half maximal stimulation of adenylate cyclase, cAMP synthesis in SaOS-2 cells) in assay [2] stood at 2.3 nM.
In the case of “[Nle^8,18, Cha^27]hPTH(1-34)NH2 (from UniProt P01270) (peptide)”, the Kd in assay [1] worked out at 50 nM. This substance also had an EC50 (half maximal stimulation of adenylate cyclase, cAMP synthesis in SaOS-2 cells) in assay [2] of 2 nM.
On the same counts, the results for “[hArg^27]hPTH(1-34)NH2 (from UniProt P01270) (peptide)” are 7 nM and 1 nM.
The like results for “[Aib^10]hPTH(1-34)NH2 (from UniProt P01270) (peptide)” were, in that order, 4 nM and 0.7 nM.
In assay [1], “[Aib^34]hPTH(1-34)NH2 (from UniProt P01270) (peptide)” showed a Kd of 7 nM. In assay [2], this substance returned an EC50 (half maximal stimulation of adenylate cyclase, cAMP synthesis in SaOS-2 cells) of 3 nM.
Regarding “[Aib^16,19]hPTH(1-34)NH2 (from UniProt P01270) (peptide)”, in assay [1], the Kd turned out to be 4 nM. For the same substance, the EC50 (half maximal stimulation of adenylate cyclase, cAMP synthesis in SaOS-2 cells) in assay [2] is 0.6 nM.
The like results for “[Dap^1, Nle^8,18, Tyr^34]hPTH(1-34)NH2 (from UniProt P01270) (peptide)” were, in that order, 150 nM and 10 nM.
On the same counts, the results for “[Cha^7,11, Nle^8,18,31, Aib^34]hPTH(1-34)NH2 (from UniProt P01270) (peptide)” are 30 nM and 1.5 nM.
For the substance “[Aib^17]hPTH(1-34)NH2 (from UniProt P01270) (peptide)”, the Kd in assay [1] was 5 nM and 50 nM. In addition, in assay [2], the EC50 (half maximal stimulation of adenylate cyclase, cAMP synthesis in SaOS-2 cells) is 2 nM and 3 nM.
As for “[Cha^23]hPTH(1-34)NH2 (from UniProt P01270) (peptide)”, in assay [1], the Kd was 200 nM. Also, the EC50 (half maximal stimulation of adenylate cyclase, cAMP synthesis in SaOS-2 cells) in assay [2] is 20 nM.
On the same counts, the results for “[Cha^7,11,15]hPTH(1-34)NH2 (from UniProt P01270) (peptide)” are 10 nM and 1.4 nM.
On the same counts, the results for “[Cha^24,28,31]hPTH(1-34)NH2 (from UniProt P01270) (peptide)” are 1000 nM and 30 nM.
On the same counts, the results for “[Cha^28]hPTH(1-34)NH2 (from UniProt P01270) (peptide)” are 50 nM and 2.5 nM.
The substance “[Cha^24,28,31, Lys^30]hPTH(1-34)NH2 (from UniProt P01270) (peptide)” yielded a Kd in assay [1] of 500 nM. This substance also yielded an EC50 (half maximal stimulation of adenylate cyclase, cAMP synthesis in SaOS-2 cells) in assay [2] of 7 nM.
Take “[Cha^7,11]hPTH(1-34)NH2 (from UniProt P01270) (peptide)”: the Kd in assay [1] was 10 nM. This substance also came in with an EC50 (half maximal stimulation of adenylate cyclase, cAMP synthesis in SaOS-2 cells) in assay [2] of 0.6 nM.
On the same counts, the results for “[Cha^7,11, Nle^8,18, Aib^16,19, Tyr^34]hPTH(1-34)NH2 (from UniProt P01270) (peptide)” are 5 nM and 1.5 nM.
On the same counts, the results for “[Cha^28,31]hPTH(1-34)NH2 (from UniProt P01270) (peptide)” are 60 nM and 7 nM.
The like results for “[Cha^7,11, Nle^8,18,31, Aib^16,19, Tyr^34]hPTH(1-34)NH2 (from UniProt P01270) (peptide)” were, in that order, 40 nM and 4 nM.
As to “[Cha^15]hPTH(1-34)NH2 (from UniProt P01270) (peptide)”, in assay [1], the Kd is 5 nM. In assay [2], this substance registered an EC50 (half maximal stimulation of adenylate cyclase, cAMP synthesis in SaOS-2 cells) of 1.3 nM.
The like results for “[Cha^7,11, Aib^16]hPTH(1-34)NH2 (from UniProt P01270) (peptide)” were, in that order, 4 nM and 1.1 nM.
On the same counts, the results for “[Cha^11]hPTH(1-34)NH2 (from UniProt P01270) (peptide)” are 5 nM and 2 nM.
On the same counts, the results for “[Nle^31]hPTH(1-34)NH2 (from UniProt P01270) (peptide)” are 4 nM and 0.7 nM.
“[Cha^7,11, Nle^8,18, Tyr^34]hPTH(1-34)NH2 (from UniProt P01270) (peptide)”: the Kd in assay [1] amounted to 6 nM. For the same substance, the EC50 (half maximal stimulation of adenylate cyclase, cAMP synthesis in SaOS-2 cells) in assay [2] is 0.6 nM.
The like results for “[Cha^24]hPTH(1-34)NH2 (from UniProt P01270) (peptide)” were, in that order, 100 nM and 10 nM.
“[Aib^19]hPTH(1-34)NH2 (from UniProt P01270) (peptide)” showed a Kd in assay [1] of 5 nM. This substance also yielded an EC50 (half maximal stimulation of adenylate cyclase, cAMP synthesis in SaOS-2 cells) in assay [2] of 0.6 nM.

These data come from patent publication USRE40850E1.
